This note sets out measurements from doi:10.1101/2020.09.09.287508 (bioRxiv, 2020).

The Kd is the concentration at which binding is half-saturated. A low value points to tighter binding.

In this assay the target is SARS-CoV-2 S-ECD-hFc (extracellular domain of the spike (S) protein, hFc-tagged) (SARS-CoV-2, UniProt P0DTC2 14-1213). Nature of the assay: flow cytometry on cells.

B1: KREMEN1 (receptor)
chain: ARPAPSPGLGPECFTANGADYRGTQNWTALQGGKPCLFWNETFQHPYNTLKYPNGEGGLGEHNYCRNPDGDVSPWCYVAEHEDGVYWKYCEIPACQMPGNLGCYKDHGNPPPLTGTSKTSNKLTIQTCISFCRSQRFKFAGMESGYACFCGNNPDYWKYGEAASTECNSVCFGDHTQPCGGDGRIILFDTLVGACGGNYSAMSSVVYSPDFPDTYATGRVCYWTIRVPGASHIHFSFPLFDIRDSADMVELLDGYTHRVLARFHGRSRPPLSFNVSLDFVILYFFSDRINQAQGFAVLYQAVKEELPQERPAVNQTVAEVITEQANLSVSAARSSKVLYVITTSPSHPPQTVPGSNSWAPPMGAGSHRVEGWTVYGLATLLILTVTAIVAKILLHVTFKSHRVPASGDLRDCHQPGTSGEIWSIFYKPSTSISIFKKKLKGQSQQDDRNPLVSD
With B1, the Kd came to 19.3 nM.

B2: ASGR1 (receptor)
chain: MTKEYQDLQHLDNEESDHHQLRKGPPPPQPLLQRLCSGPRLLLLSLGLSLLLLVVVCVIGSQNSQLQEELRGLRETFSNFTASTEAQVKGLSTQGGNVGRKMKSLESQLEKQQKDLSEDHSSLLLHVKQFVSDLRSLSCQMAALQGNGSERTCCPVNWVEHERSCYWFSRSGKAWADADNYCRLEDAHLVVVTSWEEQKFVQHHIGPVNTWMGLHDQNGPWKWVDGTDYETGFKNWRPEQPDDWYGHGLGGGEDCAHFTDDGRWNDDVCQRPYRWVCETELDKASQEPPLL
Turning to B2, the Kd worked out at 94.8 nM.
